Legend:
Assay in all cases: cell-based or functional assay
[1] = biological target: HIV-1 MGRM-C-026 envelope glycoprotein (Env), clade C (HIV-1)
[2] = biological target: HIV-1 92BR020 envelope glycoprotein (Env), clade B (HIV-1)
[3] = biological target: HIV-1 92UG005 envelope glycoprotein (Env), clade D (HIV-1)
[4] = biological target: HIV-1 MGRM-C-027 envelope glycoprotein (Env), clade C (HIV-1)
[5] = biological target: HIV-1 92RW020 envelope glycoprotein (Env), clade A (HIV-1)
[6] = biological target: HIV-1 93IN905 envelope glycoprotein (Env), clade C (HIV-1)
[7] = biological target: HIV-1 MGRM-D-018 envelope glycoprotein (Env), clade D (HIV-1)
[8] = biological target: HIV-1 MGRM-AG-005 envelope glycoprotein (Env), clade AG (HIV-1)
[9] = biological target: HIV-1 APV13 envelope glycoprotein (Env), clade B (HIV-1)
[10] = biological target: HIV-1 MGRM-D-001 envelope glycoprotein (Env), clade D (HIV-1)
[11] = biological target: HIV-1 93UG077 envelope glycoprotein (Env), clade A (HIV-1)
[12] = biological target: HIV-1 94UG103 envelope glycoprotein (Env), clade A (HIV-1)
[13] = biological target: HIV-1 MGRM-A-010 envelope glycoprotein (Env), clade A (HIV-1)
[14] = biological target: HIV-1 APV17 envelope glycoprotein (Env), clade B (HIV-1)
[15] = biological target: aMLV envelope protein (negative control virus)
[16] = biological target: HIV-1 MGRM-C-028 envelope glycoprotein (Env), clade C (HIV-1)
[17] = biological target: HIV-1 JRCSF envelope glycoprotein (Env), clade B (HIV-1) (UniProt P20871)
[18] = biological target: HIV-1 92UG024 envelope glycoprotein (Env), clade D (HIV-1)
[19] = biological target: HIV-1 JRFL envelope glycoprotein (Env), clade B (HIV-1)
[20] = biological target: HIV-1 CMU02 envelope glycoprotein (Env), clade AE (HIV-1)
[21] = biological target: HIV-1 92TH021 envelope glycoprotein (Env), clade AE (HIV-1)
[22] = biological target: HIV-1 APV6 envelope glycoprotein (Env), clade B (HIV-1)
[23] = biological target: HIV-1 NL43 envelope glycoprotein (Env), clade B (HIV-1)

B1: PGT-135 monoclonal antibody (clones 5343_B08 and 5344_E16) (antibody, V domains shown)
VH: QLQMQESGPGLVKPSETLSLSCTVSGDSIRGGEWGDKDYHWGWVRHSAGKGLEWIGSIHWRGTTHYKESLRRRVSMSIDTSRNWFSLRLASVTAADTAVYFCARHRHHDVFMLVPIAGWFDVWGPGVQVTVSS
VL: EIVMTQSPDTLSVSPGETVTLSCRASQNINKNLAWYQYKPGQSPRLVIFETYSKIAAFPARFVASGSGTEFTLTINNMQSEDVAVYYCQQYEEWPRTFGQGTKVDIK
B1 showed an IC50 (neutralization of pseudovirus) [1] of 0.0123 mg/L, an IC80 (neutralization of pseudovirus) [1] of 0.0562 mg/L and an IC90 (neutralization of pseudovirus) [1] of 0.139 mg/L. For the same binder, the IC95 (neutralization of pseudovirus) [1] was 0.331 mg/L, the IC50 (neutralization of pseudovirus) [2] was 0.104 mg/L and the IC80 (neutralization of pseudovirus) [2] was 0.253 mg/L. The IC90 (neutralization of pseudovirus) [2] was 0.43 mg/L, the IC95 (neutralization of pseudovirus) [2] was 0.72 mg/L and the IC50 (neutralization of pseudovirus) [3] was > 10 mg/L. The IC80 (neutralization of pseudovirus) [3] was > 10 mg/L, the IC90 (neutralization of pseudovirus) [3] was > 10 mg/L and the IC95 (neutralization of pseudovirus) [3] was > 10 mg/L. For the same binder, the IC50 (neutralization of pseudovirus) [4] was > 10 mg/L, the IC80 (neutralization of pseudovirus) [4] was > 10 mg/L and the IC90 (neutralization of pseudovirus) [4] was > 10 mg/L. For the same binder, the IC95 (neutralization of pseudovirus) [4] was > 10 mg/L, the IC50 (neutralization of pseudovirus) [5] was 0.157 mg/L and the IC80 (neutralization of pseudovirus) [5] was 3.46 mg/L. For the same binder, the IC90 (neutralization of pseudovirus) [5] was > 10 mg/L, the IC95 (neutralization of pseudovirus) [5] was > 10 mg/L and the IC50 (neutralization of pseudovirus) [6] was 0.0183 mg/L. The IC80 (neutralization of pseudovirus) [6] was 0.0648 mg/L, the IC90 (neutralization of pseudovirus) [6] was 0.136 mg/L and the IC95 (neutralization of pseudovirus) [6] was 0.268 mg/L. For the same binder, the IC50 (neutralization of pseudovirus) [7] was 0.0433 mg/L, the IC80 (neutralization of pseudovirus) [7] was 0.2 mg/L and the IC90 (neutralization of pseudovirus) [7] was > 10 mg/L. The IC95 (neutralization of pseudovirus) [7] was > 10 mg/L, the IC50 (neutralization of pseudovirus) [8] was > 10 mg/L and the IC80 (neutralization of pseudovirus) [8] was > 10 mg/L. For the same binder, the IC90 (neutralization of pseudovirus) [8] was > 10 mg/L, the IC95 (neutralization of pseudovirus) [8] was > 10 mg/L and the IC50 (neutralization of pseudovirus) [9] was 0.545 mg/L. The IC80 (neutralization of pseudovirus) [9] was > 10 mg/L, the IC90 (neutralization of pseudovirus) [9] was > 10 mg/L and the IC95 (neutralization of pseudovirus) [9] was > 10 mg/L. For the same binder, the IC50 (neutralization of pseudovirus) [10] was > 10 mg/L, the IC80 (neutralization of pseudovirus) [10] was > 10 mg/L and the IC90 (neutralization of pseudovirus) [10] was > 10 mg/L. The IC95 (neutralization of pseudovirus) [10] was > 10 mg/L, the IC50 (neutralization of pseudovirus) [11] was > 10 mg/L and the IC80 (neutralization of pseudovirus) [11] was > 10 mg/L. For the same binder, the IC90 (neutralization of pseudovirus) [11] was > 10 mg/L, the IC95 (neutralization of pseudovirus) [11] was > 10 mg/L and the IC50 (neutralization of pseudovirus) [12] was > 10 mg/L. The IC80 (neutralization of pseudovirus) [12] was > 10 mg/L, the IC90 (neutralization of pseudovirus) [12] was > 10 mg/L and the IC95 (neutralization of pseudovirus) [12] was > 10 mg/L. The IC50 (neutralization of pseudovirus) [13] was > 10 mg/L, the IC80 (neutralization of pseudovirus) [13] was > 10 mg/L and the IC90 (neutralization of pseudovirus) [13] was > 10 mg/L. For the same binder, the IC95 (neutralization of pseudovirus) [13] was > 10 mg/L, the IC50 (neutralization of pseudovirus) [14] was > 10 mg/L and the IC80 (neutralization of pseudovirus) [14] was > 10 mg/L. For the same binder, the IC90 (neutralization of pseudovirus) [14] was > 10 mg/L, the IC95 (neutralization of pseudovirus) [14] was > 10 mg/L and the IC50 (neutralization of pseudovirus) [15] was > 10 mg/L. The IC80 (neutralization of pseudovirus) [15] was > 10 mg/L, the IC90 (neutralization of pseudovirus) [15] was > 10 mg/L and the IC95 (neutralization of pseudovirus) [15] was > 10 mg/L. The IC50 (neutralization of pseudovirus) [16] was 2.16 mg/L, the IC80 (neutralization of pseudovirus) [16] was > 10 mg/L and the IC90 (neutralization of pseudovirus) [16] was > 10 mg/L. For the same binder, the IC95 (neutralization of pseudovirus) [16] was > 10 mg/L, the IC50 (neutralization of pseudovirus) [17] was 0.113 mg/L and the IC80 (neutralization of pseudovirus) [17] was 0.503 mg/L. It also gave an IC90 (neutralization of pseudovirus) [17] of 1.47 mg/L, an IC95 (neutralization of pseudovirus) [17] of 8.3 mg/L and an IC50 (neutralization of pseudovirus) [18] of 0.0139 mg/L. It also gave an IC80 (neutralization of pseudovirus) [18] of 0.054 mg/L, an IC90 (neutralization of pseudovirus) [18] of 0.122 mg/L and an IC95 (neutralization of pseudovirus) [18] of 0.267 mg/L. The IC50 (neutralization of pseudovirus) [19] was > 10 mg/L, the IC80 (neutralization of pseudovirus) [19] was > 10 mg/L and the IC90 (neutralization of pseudovirus) [19] was > 10 mg/L. The IC95 (neutralization of pseudovirus) [19] was > 10 mg/L, the IC50 (neutralization of pseudovirus) [20] was > 10 mg/L and the IC80 (neutralization of pseudovirus) [20] was > 10 mg/L. For the same binder, the IC90 (neutralization of pseudovirus) [20] was > 10 mg/L, the IC95 (neutralization of pseudovirus) [20] was > 10 mg/L and the IC50 (neutralization of pseudovirus) [21] was > 10 mg/L. For the same binder, the IC80 (neutralization of pseudovirus) [21] was > 10 mg/L, the IC90 (neutralization of pseudovirus) [21] was > 10 mg/L and the IC95 (neutralization of pseudovirus) [21] was > 10 mg/L. The IC50 (neutralization of pseudovirus) [22] was > 10 mg/L, the IC80 (neutralization of pseudovirus) [22] was > 10 mg/L and the IC90 (neutralization of pseudovirus) [22] was > 10 mg/L. The IC95 (neutralization of pseudovirus) [22] was > 10 mg/L, the IC50 (neutralization of pseudovirus) [23] was 6.79 mg/L and the IC80 (neutralization of pseudovirus) [23] was > 10 mg/L. The IC90 (neutralization of pseudovirus) [23] was > 10 mg/L and the IC95 (neutralization of pseudovirus) [23] was > 10 mg/L.

From patent US20200024330A1
